Test results reported in patent publication US20250206828A1, “ANTI-ADENOSINE RECEPTOR (A2aR) ANTIBODIES AND THE USE THEREOF” (Adept Therapeutics Inc., priority 2022, published 2025).

B1: Hu3F6-H1/Hu3F6-L8 (antibody, human IgG1, V domains shown)
VH: QVQLVQSGAEVKKPGASVKVSCKASGFAFTSYWMNWVRQAPGQGLEWMGRIDPSDSEAHYHHKFWGRVTMTRDTSTSTVYMELSSLRSEDTAVYYCLRSLYGKGDYWGHGTTVTVSS
VL: DVVMTQSPLSLPVTPGEPASISCRSSQSLVHRNGNTYLEWYLQKPGQSPQLLIYKVSNRFSGVPDRFSGSGSGTDFTLKISRVEAEDVGVYYCYQGSHVPLTFGGGTKVEIK
notes: Human IgG1 FES (L234F, L235E, P331S) and human Ig kappa constant domains
B2: Hu3F6-H3/Hu3F6-L7 (antibody, human IgG1, V domains shown)
VH: EVQLVQSGAEVKKPGASVKVSCKTSGFAFTSYWMNWVRQAPGQGLEWIGRIDPSDSEAHYHHKFWGRATLTVDTSSSTVYMELSSLRSEDTAVYYCLRSLYGKGDYWGHGTTVTVSS
VL: DVVMTQTPPSLPVNPGEPASISCRSSQSLVHRNGNTYLEWYLQKPGQSPQLLIYKVSNRFSGVPDRFSGSGSGSDFTLKISWVEAEDVGVYYCYQGSHVPLTFGGGTKVEIK
notes: as for B1
B3: Hu3F6-H1/Hu3F6-L7 (antibody, human IgG1, V domains shown)
VH: QVQLVQSGAEVKKPGASVKVSCKASGFAFTSYWMNWVRQAPGQGLEWMGRIDPSDSEAHYHHKFWGRVTMTRDTSTSTVYMELSSLRSEDTAVYYCLRSLYGKGDYWGHGTTVTVSS
VL: DVVMTQTPPSLPVNPGEPASISCRSSQSLVHRNGNTYLEWYLQKPGQSPQLLIYKVSNRFSGVPDRFSGSGSGSDFTLKISWVEAEDVGVYYCYQGSHVPLTFGGGTKVEIK
notes: as for B1
B4: Hu3F6-H2/Hu3F6-L7 (antibody, human IgG1, V domains shown)
VH: EVQLVQSGAEVKKPGASVKVSCKTSGFAFTSYWMNWVRQAPGQGLEWMGRIDPSDSEAHYHHKFWGRVTMTVDTSTSTVYMELSSLRSEDTAVYYCLRSLYGKGDYWGHGTTVTVSS
VL: DVVMTQTPPSLPVNPGEPASISCRSSQSLVHRNGNTYLEWYLQKPGQSPQLLIYKVSNRFSGVPDRFSGSGSGSDFTLKISWVEAEDVGVYYCYQGSHVPLTFGGGTKVEIK
notes: as for B1
B5: Hu3F6-H1/Hu3F6-L4 (antibody, human IgG1, V domains shown)
VH: QVQLVQSGAEVKKPGASVKVSCKASGFAFTSYWMNWVRQAPGQGLEWMGRIDPSDSEAHYHHKFWGRVTMTRDTSTSTVYMELSSLRSEDTAVYYCLRSLYGKGDYWGHGTTVTVSS
VL: DIVMTQTPLSLSVTPGQPASISCRSSQSLVHRNGNTYLEWYLQKPGQSPQLLIYKVSNRFSGVPDRFSGSGSGTDFTLKISRVEAEDVGVYYCYQGSHVPLTFGGGTKVEIK
notes: as for B1
B6: Hu3F6-H1/Hu3F6-L6 (antibody, human IgG1, V domains shown)
VH: QVQLVQSGAEVKKPGASVKVSCKASGFAFTSYWMNWVRQAPGQGLEWMGRIDPSDSEAHYHHKFWGRVTMTRDTSTSTVYMELSSLRSEDTAVYYCLRSLYGKGDYWGHGTTVTVSS
VL: DIVMTQTPPSLPVNPGEPASISCRSSQSLVHRNGNTYLEWYLQKPGQSPQLLIYKVSNRFSGVPDRFSGSGSGSDFTLKISWVEAEDVGVYYCYQGSHVPLTFGGGTKVEIK
notes: as for B1
B7: Hu3F6-H3/Hu3F6-L6 (antibody, human IgG1, V domains shown)
VH: EVQLVQSGAEVKKPGASVKVSCKTSGFAFTSYWMNWVRQAPGQGLEWIGRIDPSDSEAHYHHKFWGRATLTVDTSSSTVYMELSSLRSEDTAVYYCLRSLYGKGDYWGHGTTVTVSS
VL: DIVMTQTPPSLPVNPGEPASISCRSSQSLVHRNGNTYLEWYLQKPGQSPQLLIYKVSNRFSGVPDRFSGSGSGSDFTLKISWVEAEDVGVYYCYQGSHVPLTFGGGTKVEIK
notes: as for B1
B8: Hu3F6-H1/Hu3F6-L5 (antibody, human IgG1, V domains shown)
VH: QVQLVQSGAEVKKPGASVKVSCKASGFAFTSYWMNWVRQAPGQGLEWMGRIDPSDSEAHYHHKFWGRVTMTRDTSTSTVYMELSSLRSEDTAVYYCLRSLYGKGDYWGHGTTVTVSS
VL: DVVMTQTPLSLSVTPGQPASISCRSSQSLVHRNGNTYLEWYLQKPGQSPQLLIYKVSNRFSGVPDRFSGSGSGTDFTLKISRVEAEDVGVYYCYQGSHVPLTFGGGTKVEIK
notes: as for B1
B9: Hu3F6-H2/Hu3F6-L6 (antibody, human IgG1, V domains shown)
VH: EVQLVQSGAEVKKPGASVKVSCKTSGFAFTSYWMNWVRQAPGQGLEWMGRIDPSDSEAHYHHKFWGRVTMTVDTSTSTVYMELSSLRSEDTAVYYCLRSLYGKGDYWGHGTTVTVSS
VL: DIVMTQTPPSLPVNPGEPASISCRSSQSLVHRNGNTYLEWYLQKPGQSPQLLIYKVSNRFSGVPDRFSGSGSGSDFTLKISWVEAEDVGVYYCYQGSHVPLTFGGGTKVEIK
notes: as for B1
B10: Hu3F6-H1/Hu3F6-L2 (antibody, human IgG1, V domains shown)
VH: QVQLVQSGAEVKKPGASVKVSCKASGFAFTSYWMNWVRQAPGQGLEWMGRIDPSDSEAHYHHKFWGRVTMTRDTSTSTVYMELSSLRSEDTAVYYCLRSLYGKGDYWGHGTTVTVSS
VL: DVVMTQSPLSLPVTLGQPASISCRSSQSLVHRNGNTYLEWYQQRPGQSPRRLIYKVSNRFSGVPDRFSGSGSGTDFTLKISRVEAEDVGVYYCYQGSHVPLTFGGGTKVEIK
notes: as for B1
B11: Hu3F6-H1/Hu3F6-L1 (antibody, human IgG1, V domains shown)
VH: QVQLVQSGAEVKKPGASVKVSCKASGFAFTSYWMNWVRQAPGQGLEWMGRIDPSDSEAHYHHKFWGRVTMTRDTSTSTVYMELSSLRSEDTAVYYCLRSLYGKGDYWGHGTTVTVSS
VL: DVVMTQSPLSLPVTLGQPASISCRSSQSLVHRNGNTYLEWFQQRPGQSPRRLIYKVSNRFSGVPDRFSGSGSGTDFTLKISRVEAEDVGVYYCYQGSHVPLTFGGGTKVEIK
notes: as for B1

biological target: T1, human adenosine A2A receptor (A2aR) (human, UniProt P29274 1-412); experiment: flow cytometry, HEK293-hA2aR cells, supernatant 1 ug/ml
T1 construct: Assays used HEK293 cells stably overexpressing human A2aR (BPS Bioscience 79381), human A2aR-expressing CHO cells, or endogenous A2aR on human PBMC; also called human A2aR; hA2aR
T1 sequence (P29274 whole entry): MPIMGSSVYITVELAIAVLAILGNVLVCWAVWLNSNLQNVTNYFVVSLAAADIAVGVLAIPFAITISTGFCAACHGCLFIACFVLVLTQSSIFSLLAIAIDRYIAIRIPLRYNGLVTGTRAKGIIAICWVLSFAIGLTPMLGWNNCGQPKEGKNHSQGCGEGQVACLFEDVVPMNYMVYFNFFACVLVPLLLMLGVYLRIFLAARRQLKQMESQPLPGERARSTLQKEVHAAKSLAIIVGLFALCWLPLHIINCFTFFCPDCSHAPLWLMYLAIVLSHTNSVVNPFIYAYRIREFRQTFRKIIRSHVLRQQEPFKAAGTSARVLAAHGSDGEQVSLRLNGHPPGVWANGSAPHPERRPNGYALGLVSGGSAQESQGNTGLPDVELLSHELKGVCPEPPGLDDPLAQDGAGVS

Point of comparison: B2, MFI 1510 MFI. Against it:
- B1 — lower, 1420 MFI
- B3 — lower, 290 MFI
- B4 — lower, 1180 MFI
- B5 — lower, 1320 MFI
- B6 — lower, 313 MFI
- B7 — higher, 1660 MFI
- B8 — lower, 1500 MFI
- B9 — higher, 1580 MFI
- B10 — lower, 14 MFI
- B11 — lower, 15 MFI
